# In PMC3686486:
# Legend:
# [1] = target: Bacillus thuringiensis subsp. israelensis Cry11Aa toxin (Bacillus thuringiensis subsp. israelensis) (UniProt P21256); experiment: ELISA
# [2] = target: Bacillus thuringiensis subsp. israelensis Cry4Ba toxin (Bacillus thuringiensis subsp. israelensis); experiment: ELISA
# [3] = target: Bacillus thuringiensis subsp. israelensis Cry11Aa toxin (Bacillus thuringiensis subsp. israelensis) (UniProt P21256); experiment: SPR
# [4] = target: Bacillus thuringiensis subsp. israelensis Cry4Ba toxin (Bacillus thuringiensis subsp. israelensis); experiment: SPR
# Chain of Bacillus thuringiensis subsp. israelensis Cry4Ba toxin (Bacillus thuringiensis subsp. israelensis) (P05519 whole entry): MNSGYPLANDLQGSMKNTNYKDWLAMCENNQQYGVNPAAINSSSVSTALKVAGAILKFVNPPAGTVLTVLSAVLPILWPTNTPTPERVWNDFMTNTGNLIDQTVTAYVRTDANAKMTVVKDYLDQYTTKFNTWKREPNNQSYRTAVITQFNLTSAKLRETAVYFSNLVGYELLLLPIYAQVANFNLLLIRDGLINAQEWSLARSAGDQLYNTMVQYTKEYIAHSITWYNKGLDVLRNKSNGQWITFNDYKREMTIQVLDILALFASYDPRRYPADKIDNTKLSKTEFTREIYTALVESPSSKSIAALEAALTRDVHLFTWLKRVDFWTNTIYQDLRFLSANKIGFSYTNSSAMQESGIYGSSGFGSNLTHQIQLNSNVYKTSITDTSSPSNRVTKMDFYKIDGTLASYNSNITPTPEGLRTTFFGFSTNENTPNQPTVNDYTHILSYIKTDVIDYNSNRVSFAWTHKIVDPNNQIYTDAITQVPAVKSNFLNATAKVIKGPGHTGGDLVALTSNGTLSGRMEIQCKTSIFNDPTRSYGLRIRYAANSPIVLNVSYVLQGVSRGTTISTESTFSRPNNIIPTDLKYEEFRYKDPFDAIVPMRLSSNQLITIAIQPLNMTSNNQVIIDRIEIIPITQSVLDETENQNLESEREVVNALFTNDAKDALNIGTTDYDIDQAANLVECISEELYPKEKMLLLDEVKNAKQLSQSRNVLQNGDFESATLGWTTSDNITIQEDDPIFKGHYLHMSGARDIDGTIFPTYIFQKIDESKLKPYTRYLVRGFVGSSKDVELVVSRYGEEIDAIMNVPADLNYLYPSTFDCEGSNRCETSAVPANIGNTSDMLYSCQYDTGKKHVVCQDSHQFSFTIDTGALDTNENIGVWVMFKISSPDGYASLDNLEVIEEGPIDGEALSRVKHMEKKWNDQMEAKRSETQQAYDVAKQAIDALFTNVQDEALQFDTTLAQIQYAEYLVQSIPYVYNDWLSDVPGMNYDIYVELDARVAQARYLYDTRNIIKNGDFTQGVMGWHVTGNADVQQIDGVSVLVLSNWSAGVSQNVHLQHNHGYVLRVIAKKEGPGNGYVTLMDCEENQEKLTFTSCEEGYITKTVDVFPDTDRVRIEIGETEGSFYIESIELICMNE
substance,measurement,setting,value
Aedes aegypti cadherin receptor fragment CR7–11 (cadherin repeats 7–11) (domain or fragment),Kd,[1],14.8 nM
same,Kd,[2],135 nM
same,koff,[3],0.00252 s⁻¹
same,Kd,[4],154 nM
same,koff,[4],0.00203 s⁻¹
